The term Kd denotes the constant that tells how readily two partners part at equilibrium.

Test [1] concerns the target T1, murine 4-1BB (murine, UniProt P20334 24-256).
T1 chain: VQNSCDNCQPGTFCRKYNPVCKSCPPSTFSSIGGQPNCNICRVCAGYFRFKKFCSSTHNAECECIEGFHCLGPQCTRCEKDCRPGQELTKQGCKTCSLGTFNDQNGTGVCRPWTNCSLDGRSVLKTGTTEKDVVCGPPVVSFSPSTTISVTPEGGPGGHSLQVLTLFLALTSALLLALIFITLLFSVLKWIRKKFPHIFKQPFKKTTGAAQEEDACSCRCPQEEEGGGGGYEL
Briefly: FACS.

In another test the target is rat collagen I (rat, UniProt P02454 152-1207; P02466 86-1125). Briefly: ELISA. On the technique in general: In an ELISA, binding on a coated surface is turned into a signal by an enzyme label.
rat collagen I, sequence (P02454 152-1207, chain 1 of 2): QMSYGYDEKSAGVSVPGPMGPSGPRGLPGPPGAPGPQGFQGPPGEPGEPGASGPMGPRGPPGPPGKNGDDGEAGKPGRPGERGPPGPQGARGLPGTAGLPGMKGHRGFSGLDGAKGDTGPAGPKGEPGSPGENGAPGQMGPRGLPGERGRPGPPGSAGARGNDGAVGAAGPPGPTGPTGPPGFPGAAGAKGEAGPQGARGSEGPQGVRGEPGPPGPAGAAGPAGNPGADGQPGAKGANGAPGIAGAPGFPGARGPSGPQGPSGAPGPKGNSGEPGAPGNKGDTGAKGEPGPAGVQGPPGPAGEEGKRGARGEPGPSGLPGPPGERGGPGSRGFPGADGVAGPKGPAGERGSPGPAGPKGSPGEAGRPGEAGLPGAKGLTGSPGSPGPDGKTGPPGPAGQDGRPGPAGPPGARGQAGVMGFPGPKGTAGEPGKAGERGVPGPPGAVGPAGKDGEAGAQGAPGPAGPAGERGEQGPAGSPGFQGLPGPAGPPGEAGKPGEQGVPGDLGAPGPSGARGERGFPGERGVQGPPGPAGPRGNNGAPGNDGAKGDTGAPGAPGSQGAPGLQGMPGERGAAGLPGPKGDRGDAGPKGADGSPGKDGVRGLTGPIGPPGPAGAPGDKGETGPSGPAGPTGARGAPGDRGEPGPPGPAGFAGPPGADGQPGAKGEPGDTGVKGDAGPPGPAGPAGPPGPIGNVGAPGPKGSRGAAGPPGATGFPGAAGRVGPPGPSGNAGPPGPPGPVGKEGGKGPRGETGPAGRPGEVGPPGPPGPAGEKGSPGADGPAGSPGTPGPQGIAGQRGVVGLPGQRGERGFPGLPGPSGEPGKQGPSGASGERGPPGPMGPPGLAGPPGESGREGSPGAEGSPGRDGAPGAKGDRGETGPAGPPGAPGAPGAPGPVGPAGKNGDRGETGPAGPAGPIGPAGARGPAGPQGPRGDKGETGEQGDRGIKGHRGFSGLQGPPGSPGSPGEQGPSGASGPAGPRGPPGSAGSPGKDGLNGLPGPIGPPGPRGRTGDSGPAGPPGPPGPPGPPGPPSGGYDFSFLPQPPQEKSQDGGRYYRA
rat collagen I, sequence (P02466 86-1125, chain 2 of 2): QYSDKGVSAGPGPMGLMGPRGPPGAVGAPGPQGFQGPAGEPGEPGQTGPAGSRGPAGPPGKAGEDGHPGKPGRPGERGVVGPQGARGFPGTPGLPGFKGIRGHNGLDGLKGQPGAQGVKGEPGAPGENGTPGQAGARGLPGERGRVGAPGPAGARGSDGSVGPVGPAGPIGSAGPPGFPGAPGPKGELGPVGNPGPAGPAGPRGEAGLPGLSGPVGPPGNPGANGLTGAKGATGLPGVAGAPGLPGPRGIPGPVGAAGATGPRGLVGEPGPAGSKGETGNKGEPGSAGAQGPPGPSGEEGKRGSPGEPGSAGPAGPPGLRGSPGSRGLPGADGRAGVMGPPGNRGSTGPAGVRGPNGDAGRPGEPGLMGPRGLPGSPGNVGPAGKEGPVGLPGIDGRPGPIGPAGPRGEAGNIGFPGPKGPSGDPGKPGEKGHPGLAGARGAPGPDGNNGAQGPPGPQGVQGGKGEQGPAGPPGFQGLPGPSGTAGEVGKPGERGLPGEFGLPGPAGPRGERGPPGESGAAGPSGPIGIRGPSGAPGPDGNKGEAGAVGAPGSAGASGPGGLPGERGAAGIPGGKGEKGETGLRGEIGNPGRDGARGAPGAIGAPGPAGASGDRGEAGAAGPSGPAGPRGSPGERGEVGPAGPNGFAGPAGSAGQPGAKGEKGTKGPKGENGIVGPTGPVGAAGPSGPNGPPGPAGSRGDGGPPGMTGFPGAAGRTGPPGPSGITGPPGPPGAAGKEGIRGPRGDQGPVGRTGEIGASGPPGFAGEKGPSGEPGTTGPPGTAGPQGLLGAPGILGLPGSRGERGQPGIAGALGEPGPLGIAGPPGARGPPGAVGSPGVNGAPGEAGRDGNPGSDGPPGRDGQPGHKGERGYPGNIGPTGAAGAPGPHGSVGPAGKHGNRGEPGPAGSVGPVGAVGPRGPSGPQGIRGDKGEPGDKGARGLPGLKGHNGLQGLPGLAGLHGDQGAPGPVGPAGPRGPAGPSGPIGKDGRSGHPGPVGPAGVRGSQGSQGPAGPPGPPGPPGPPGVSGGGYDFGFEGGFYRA
Test [2] addresses T2, murine 4-1BB (Mus musculus, UniProt P20334).
T2 construct: 4-1BB (CD137, TNFRSF9), murine; gene from OriGene cloned into pIRES2 (GFP downstream of an IRES site, not fused); also called CD137; TNFRSF9; source: FreeStyle 293-F, transiently transfected (pIRES2 vector), on cells
Description: flow cytometry on cells; FreeStyle 293-F cells transiently transfected with murine 4-1BB, titrated with antibody for 3 h at 4 °C; detected with ɑmIgG1-APC. As to conditions: one partner purified.

B1: ɑ4-1BB-LAIR (ɑ4-1BB antibody clone LOB12.3 fused to the ectodomain of murine LAIR1) (antibody, V domains shown)
VH: DVQLVESGGGLVQPGRSLKLSCAASGFIFSYFDMAWVRQAPTKGLEWVASISPDGSIPYYRDSVKGRFTVSRENAKSSLYLQMDSLRSEDTATYYCARRSYGGYSEIDYWGQGVMVTVSS
VL: DIQMTQSPASLSASLEEIVTITCQASQDIGNWLAWYHQKPGKSPQLLIYGSTSLADGVPSRFSGSSSGSQYSLKISRLQVEDIGIYYCLQAYGAPWTFGGGTKLELK
notes: heavy chain variable region of ɑ4-1BB clone LOB12.3; murine IgG1 heavy chain constant region; flexible (G4S)3 linker, written out from the printed formula; Leukocyte Associated Immunoglobulin Like Receptor 1 (LAIR1), murine, ectodomain; light chain variable region of ɑ4-1BB clone LOB12.3; murine kappa light chain constant region; Chimeric murine IgG1/kappa antibody; LAIR1 is fused to the …
Consider B1, for which the Kd with murine 4-1BB [1] was determined as 5.08 nM; with rat collagen I, 25 nM. Besides, the binding result with murine 4-1BB [2] is listed as “binds”.

B2: ɑ4-1BB antibody (clone LOB12.3), murine IgG1 chimera (antibody, V domains shown)
VH: B1 VH
VL: B1 VL
notes: heavy chain variable region of ɑ4-1BB clone LOB12.3, as in the heavy chain of m1; murine IgG1 heavy chain constant region; light chain variable region of ɑ4-1BB clone LOB12.3, as the light chain of m1; murine kappa light chain constant region; Chimeric murine IgG1/kappa antibody; light and heavy chain encoded in one cassette with a T2A peptide between them; also called α4-1BB; a4-1BB; source: …
B2 showed a Kd in the test with murine 4-1BB [1] of 4.12 nM. Also, the binding result in the test with murine 4-1BB [2] is “binds”.

Source of the values: PMC10907589, “CD8^+ T cell priming that is required for curative intratumorally anchored anti-4-1BB immunotherapy is constrained by Tregs” (Nature Communications, 2024).
